Test results: patent US20170240592A1, “GADD45BETA/MKK7 INHIBITOR FOR THE TREATMENT OF A RESISTANT HAEMATOLOGICAL MALIGNANCY” (IMPERIAL INNOVATIONS LIMITED, priority 2014, published 2017)
Square brackets hold non-standard residues; d marks the D form. * marks the point of attachment. Cbz = O=C(OCc1ccccc1)*

Assays:
[1] = biological target: GST-MKK7 (full-length human MKK7 fused to an N-terminal GST tag) (human) (UniProt O14733); assay: ELISA Gadd45β/MKK7 competition; without serum pre-incubation
[2] = biological target: GST-MKK7 (full-length human MKK7 fused to an N-terminal GST tag) (human) (UniProt O14733); assay: ELISA Gadd45β/MKK7 competition; after 48-hr pre-incubation with human serum at 37 C
[3] = test system: diffuse large B-cell lymphoma (DLBCL) cell lines; assay: PI nuclear staining assay, apoptotic cells in DLBCL cell lines; type: cell-based, human; settings: 6 days; sensitive and insensitive DLBCL cell lines; baseline level
Method: Current treatment of diffuse large B-cell lymphoma typically involves treatment with combination therapy, such as cyclophosphamide, doxorubicin, vincristine and prednisone (CHOP), or rituximab, cyclophosphamide, doxorubicin, vincristine and prednisone (R-CHOP). With those current treatments, many patients relapse and/or develop drug resistance at some point. The potential of the Gadd45β/MKK7 inhibitor DTP3 to operate in these settings was evaluated, by determining levels of apoptosis in diffuse large B-cell lymphoma cell lines known to be resistant to current therapies (HT, SU-DHL-8, U-2932, RC-K8 and RIVA, see for example Kaneko et al, Clinical Cancer Research, 2014, 20, p 1814-1820; Naylor et al, Cancer Research, 2011, Volume 71, p 2643-2653; Lyu et al, Cancer Research, 2013, Volume 73, Issue 8, Supplement 1), following treatment of those cells with DTP3. These cells have CARD11, A20 and/or MYD88 mutations and are also known to be resistant to agents such as Bruton's tyrosine kinase inhibitors, spleen tyrosine kinase inhibitors, PI3K inhibitors and/or protein kinase C inhibitors.
The percentages of apoptotic cells are depicted.
A comparison was made between the ability of DTP3 to kill various DLBCL cell lines by apoptosis in vitro. Cell lines HT, SU-DHL-8, U-2932 and RC-K8 which are known to be sensitive to DTP3; and insensitive cell lines RI-1, NU-DUL-1, TMD8, and HBL1 were used. Cell death was assessed using a standard propidium iodide (PI) nuclear staining assay followed by flow cytometry whereby the proportion of cells with a sub G1-DNA content was measured after cells had been exposed to DTP3 for 6 days at 10 μM. As controls, further populations of cells were left untreated (UT) or were treated with a scrambled D-tripeptide (SCR) for 6 days.
Apoptosis analyses were performed using propidium iodide (PI) nuclear labelling, as described previously (Riccardi and Nicoletti, 2006). Briefly, cells were seeded at a density of 2×10^5 cells/well into wells of either 24- or 48-well plates and cultured in the presence or absence of treatment, as shown. Cells were then fixed in 70% ice-cold ethanol for 16 hr, washed in PBS, and treated with ribonuclease A (50 μg/mL) for 30 min at room temperature. Samples were finally stained with PI (50 μg/mL) in 0.1% sodium citrate buffer for 2 to 4 hr at 4° C. in the dark, and data were acquired using a FACSCalibur automated system (Becton Dickinson) and analysed with FlowJo.

Gadd45β/MKK7 complex = biological target: T1, Gadd45β/MKK7 complex (Homo sapiens, UniProt O14733); assay: co-immunoprecipitation assay; type: binding; settings: anti-FLAG immunoprecipitates, HEK-293T lysates
T1 construct: expressed in transfected cells; host or cells: human HEK-293T
T1 sequence (O14733 1-419): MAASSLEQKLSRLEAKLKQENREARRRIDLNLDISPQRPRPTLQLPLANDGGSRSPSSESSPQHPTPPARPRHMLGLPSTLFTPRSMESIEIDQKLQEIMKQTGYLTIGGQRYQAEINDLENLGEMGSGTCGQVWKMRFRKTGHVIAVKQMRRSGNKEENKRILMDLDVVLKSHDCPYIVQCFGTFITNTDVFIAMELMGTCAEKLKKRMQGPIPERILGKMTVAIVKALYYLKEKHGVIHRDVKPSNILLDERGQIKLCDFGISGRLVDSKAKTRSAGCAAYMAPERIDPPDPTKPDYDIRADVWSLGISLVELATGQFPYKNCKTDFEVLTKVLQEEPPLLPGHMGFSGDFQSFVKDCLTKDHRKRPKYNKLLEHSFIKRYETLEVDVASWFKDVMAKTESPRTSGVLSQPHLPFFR
Method: (§1) Values express the percentage of live cells present in the treated cultures relative to the live cells present in the respective untreated cultures and denote means±SD ([WM]; n=3). UT, untreated. […] Values express the percentage of inhibition of Gadd45β binding to MKK7 relative to the binding measured in the absence of peptide. […] Co-immunoprecipitations (IP) were performed using an anti-FLAG antibody (a-FLAG); western blots (WB) were developed using an anti-HA or an anti-MKK7 antibody, as shown.
Co-immunoprecipitation assays were performed as described previously (Papa et al., 2004). Briefly, human HEK-293T cells were seeded at a density of 1.8-2.2×10^6 cells/dish in […] tissue-culture dishes and then transfected with pcDNA-FLAG-hMKK7 and pcDNA-HA-hGADD45β by using the calcium phosphate precipitation method (Papa et al., 2004). 48 hr after transfection, cells were washed with PBS and then lysed in lysis buffer supplemented with protease inhibitors (1 mM phenylmethylsulfonylfluoride, 10 μM chymostatin, 2 μg/mL aprotinin, 2 μg/mL leupeptin; Roche) for 30 min in ice. Cell lysates were cleared by centrifugation at 45,000×g for 40 min and then used for co-immunoprecipitations with anti-FLAG M2 Affinity Gel (Sigma-Aldrich), binding to FLAG-tagged MKK7. Western blots were developed using an anti-HA (binding to HA-hGADD45β) or an anti-MKK7 antibody. […]

[4] = mouse, in vivo
Method: In vitro pharmacokinetic assays were performed according to established, in-house protocols and included: plasma stability (human), thermodynamic solubility (PBS pH 7.4, at 37° C. for 14 days), microsomal stability (human), plasma protein binding (PPB; mouse and human), and distribution coefficient (Log D). In vivo pharmacokinetic analyses were also performed at Cyprotex according to established, in-house protocols. Briefly, the peptides were dissolved in PBS and administered by single intravenous injection to CD1 male mice at the dose of 10 mg/kg (25-30 g of total body weight; n=3 mice per time point per compound). Blood samples were collected in heparinized tubes at up to 7 time points after this injection (i.e. 0.08, 0.25, 0.5, 1, 2, 4 and 8 hr), and the plasma concentrations of the test peptide were determined at each time point by LC-MS/MS, using a five-point standard curve covering a peptide concentration range from 3 to 3,000 ng/mL. Standard curves were prepared using blank plasma matrices and treated in the same manner as the test samples. […] Values were calculated from the data of the peptide plasma concentration versus time curves using a non-compartmental model analysis, as described elsewhere (Groulx, 2006; Landaw and Di Stefano 3rd, 1982). The doses of z-DTP2 and DTP3 predicted to achieve the therapeutic plasma concentration of 1 μM at the steady state were calculated from the measured pharmacokinetic values using the following equation: k0=k1×Vd×Cp (where Vd is expressed in L/kg; Cp is the plasma concentration at the steady state expressed in mg/L; k0 is the zero order input expressed in mg/kg/hr; k1 is the first order elimination constant [0.693/t1/2]).

[5] = test system: multiple myeloma cell lines; assay: [3H]thymidine incorporation assay, survival of multiple myeloma cell lines; type: cell-based, human; settings: for cytotoxic activity in multiple myeloma cell lines: 6-day treatment, all lines tested apart from RPMI-8226 and KMM-1; for IC50 values in the sensitive multiple myeloma cell lines: 144 hr, sensitive (Gadd45β-dependent) cell lines
Method: as §1
[^3H]Thymidine incorporation and trypan blue exclusion assays were performed using standard methods (Mauro et al., 2011). […] Apoptosis analyses were performed using PI staining as described in Mauro et al., 2011. Additional details are provided in the Supplemental Experimental Procedures.

[6] = biological target: GST-MKK7 (full-length human MKK7 fused to an N-terminal GST tag) (human) (UniProt O14733); assay: ELISA Gadd45β/MKK7 competition (summary sentence on FIGS. 4 to 8)
U266 cells = assay: [3H]thymidine incorporation assay, DTP3 and bortezomib as single agents or in combination, U266; settings: Homo sapiens, U-266, 48 h, read-out: IC50 value as single agent
Method: (§2) Treatments with DTP3 were for 6 days; bortezomib was added to the cell cultures 48 hr prior to the measurement of cell viability. For the combination treatment, DTP3 was used at the concentrations of 3 nM in U266 cells and of 10 nM in KMS-12 cells, whereas bortezomib was used at increasing concentrations, as shown.
Viability data from the experiment shown in FIG. 12 were converted into values representing the fraction of cells affected (FA) equaling 0.5 in the drug-treated cultures compared with untreated cultures, and the interaction of DTP3 with bortezomib was analysed according to the Chou-Talalay method (Chou, 2006). Also shown are the drug concentrations giving the FA value of 0.5 and the description of the CI. […]
(§3) [^3H]Thymidine incorporation assays were performed using standard protocols (Griffiths and Sundaram, 2011). […] At 24, 72 or 144 hr, cells were incubated for an additional 16 hr with 0.037 MBq/well of [^3H]thymidine (Amersham), and then harvested onto glass fibre filter mats using a 96-well plate automated Tomtec cell harvester (Receptor Technologies) and analysed by liquid scintillation spectroscopy with a LKB Wallac Trilux Microbeta 3 b-counter (PerkinElmer). Values were expressed as the percentage of the counts per minute (cpm) measured in the treated cultures relative to the cpm measured in the respective untreated cultures. […]

KMS-12 cells = assay: [3H]thymidine incorporation assay, DTP3 and bortezomib as single agents or in combination, KMS-12; settings: Homo sapiens, 48 h, read-out: IC50 value as single agent
Method: as §2
Viability data from the experiment shown in FIG. 12 were converted into values representing the fraction of cells affected (FA) equaling 0.5 in the drug-treated cultures compared with untreated cultures, and the interaction of DTP3 with bortezomib was analysed according to the Chou-Talalay method (Chou, 2006). Also shown are the drug concentrations giving the FA value of 0.5 and the description of the CI. Based on the Chou-Talalay equation (Chou, 2006), synergy is present when the CI is less than 1.0 (where values between 0.3 and 0.7 denote synergism, and values between 0.1 and 0.3 denote strong synergism); the combination is additive when CI equals 1.0, and antagonistic when it is more than 1.0 (Chou, 2006).
as §3
The activities of DTP3 and bortezomib in the U266 and KMS-12 myeloma cell lines, both as single agents and in combination, were determined using [^3H]thymidine incorporation assays, performed as described above in “Cell Proliferation, Cell Death, and Apoptosis Assays”. The IC50 values of bortezomib as single agent were determined at 48 hr using 9 concentrations of drug, ranging from 0.1 to 1,000 nM.

Question: With “DTP3 (Acetyl-Tyr-Arg-Phe-NH2, all residues in the D configuration)” as the molecule, how does the IC50 [1] read?
Answer: 0.16 nM

Question: What about the IC50 [2] of the same molecule?
Answer: 0.13 nM

Question: For “Ac-Arg-Phe-Tyr-NH2 (Ac-[dR]-[dF]-[dY]-NH2) [SCRB, scrambled control D-tripeptide, reference compound]”, which “percentage of apoptotic cells” value [3] is on record?
Answer: no more than 27.2%

Question: And the “disruption of the Gadd45β/MKK7 complex” value (Gadd45β/MKK7 complex)?
Answer: not

Question: For “tetrapeptide Tyr-Glu-Arg-Phe, D configuration, NH2 group at the C terminal, benzyloxycarbonyl group at the N terminal (Cbz-[dY][dE][dR][dF]-NH2) [z-DTP2]”, which “predicted dose required to achieve the therapeutic plasma concentration of 1 μM at the steady state (k0)” value [4] is on record?
Answer: 3.61 mg/kg/h

Question: What about the “cytotoxic activity in multiple myeloma cell lines” value [5] of the same molecule?
Answer: potent and dose-dependent toxicity

Question: And the “IC50 values in the sensitive multiple myeloma cell lines” value [5]?
Answer: low nM to low μM

Question: For “DTP3 (Acetyl-Tyr-Arg-Phe-NH2, all residues in the D configuration) (peptide)”, which IC50 [6] is on record?
Answer: < 1 nM

Question: With `CC(C)C[C@H](NC(=O)[C@H](Cc1ccccc1)NC(=O)c1cnccn1)B(O)O` [bortezomib, reference compound] as the molecule, how does the IC50 (U266 cells) read?
Answer: 6 nM

Question: What about the IC50 (KMS-12 cells) of the same molecule?
Answer: 6 nM

Question: With “tetrapeptide Tyr-Asp-His-Phe, D-configuration, NH2 group at the C terminal, benzyloxycarbonyl group at the N terminal (Cbz-[dY][dD][dH][dF]-NH2) [z-DTP1]” as the molecule, how does the “cytotoxic activity in multiple myeloma cell lines” value [5] read?
Answer: potent and dose-dependent toxicity

Question: What about the “IC50 values in the sensitive multiple myeloma cell lines” value [5] of the same molecule?
Answer: low nM to low μM
